# Target: FG repeat domain of 669 residues with non-charged spacers and 36 FSFG motifs
# Experiment: FG phase partitioning
row,Substance,fold more effective entry than wild-type CLPs [fold]
1,"conical CLPs of HIV-1 CA G89V, filled with sinGFP4a (complex)",4

# Target: prf.GLFG_(52×12), Nup98-type FG domain comprising 52 perfect 12mer GLFG repeat units
# Experiment: FG phase partitioning
Substance,partition coefficient,fold reduction of partitioning against wild type [fold],partitioning relative to the wild-type level [%],reduction in partitioning against wild type [%]
"20 nm T1 pentamer-only capsid spheres of HIV-1 CA G60A, G61P, labelled with ~15% CA-EGFP (complex)",750,,,
"40 nm capsid spheres of HIV-1 CA N21C, A22C, labelled with ~15% CA-EGFP (complex)",1000,,,
EGFP,< 0.1,,,
"conical CLPs (capsid-like particles) of HIV-1 CA wild-type, labelled with ~15% CA-EGFP (complex)",1000,,,
"conical CLPs of HIV-1 CA A88E, filled with sinGFP4a (complex)",,> 10,,
"conical CLPs of HIV-1 CA A92E, filled with sinGFP4a (complex)",,> 10,5,
"conical CLPs of HIV-1 CA G94D, filled with sinGFP4a (complex)",,,5,
"conical CLPs of HIV-1 CA H87E, filled with sinGFP4a (complex)",,15,,
"conical CLPs of HIV-1 CA H87Q, filled with sinGFP4a (complex)",,,,50
"conical CLPs of HIV-1 CA I91E, filled with sinGFP4a (complex)",,> 10,,
"conical CLPs of HIV-1 CA M96E, filled with sinGFP4a (complex)",,> 10,,
"conical CLPs of HIV-1 CA R132K, filled with sinGFP4a (complex)",,,,50
"conical CLPs of HIV-1 CA V86E, filled with sinGFP4a (complex)",,> 10,,
mCherry,< 0.1,,,

# Reference: doi:10.1101/2025.03.13.643050
